Experiment [1] has as its target Pythium ultimum Gat1 (Pythium ultimum). Nature of the experiment: AUC.
Experiment [2] has the same target. Briefly: AUC. This is another data set of the same source.
Experiment [3] concerns the target Toxoplasma gondii Gat1 (Toxoplasma gondii). Briefly: SEC + AUC.

Like-named read-outs stand apart in the source and are kept apart here. Where only a bound is given, the exact number is not on record here.

By stoichiometry N is commonly meant a count of units in the complex or per binding partner. For the substance Pythium ultimum Gat1 (enzyme), in experiment [1], the fold higher dimer affinity than Oc-glycogenin-1 (reported Kd 0.85 µM) was above 2 fold and the stoichiometry N came out at 2. Besides, in experiment [2], the stoichiometry N is 2.
With Toxoplasma gondii Gat1 (enzyme), the stoichiometry N in experiment [3] worked out at 2.

Values taken from doi:10.1101/764241.
